Measured values taken from patent publication US8361965B2, “Recombinant chimeric protein of neutrophil inhibitory factor and hirugen, and pharmaceutical composition thereof” (Lunan Pharmaceutical Group Corporation, priority 2008, dated 2013).

Tests used:
thrombin = thrombin (Homo sapiens, UniProt P00734); assay: in vitro test for reversible reaction of TNHH and thrombin (Hirudin ELISA); type: biochemical; parameters: Human thrombin (127 Unit/ampoule), Lot No.: 20021105; purchased National Institute for The Control of Pharmaceutical and Biological Products Lot No.: 20021105
Procedure: Adding 1.27 ml water into one ampoule of human thrombin, and mixing to obtain 100 Unit/ml solution; diluting the mother liquid of TNHH with water to 1.0 mg/ml, taking 0.5 ml thus obtained solution and adding 0.1 ml thrombin solution ([…] of thrombin), reacting at 37 for 2 hr, centrifuging and collecting the supernatant, diluting for 10 times with the dilution solution (taught by the instruction of IMUBIND® Hirudin ELISA Kit), repeating the dilution for 6 times at a four fold gradient, detecting according to the instruction of IMUBIND® Hirudin ELISA Kit, and determining the absorbance at 450 nm wavelength.

[1] = tested on: human peripheral blood leukocyte; assay: inhibition of H2O2 release from human peripheral blood leukocyte; type: cell-based
Procedure: 10 ml venous blood was taken from healthy people, and heparin sodium was added for anticoagulation. 10 ml HAS buffer (comprising RPMI 1640+10 mM HEPES+1.2 mM CaCl2+1.0 mM MgCl2+1% HAS, pH 7.4) was added into the blood and mixed. Leukocyte separation solution (Sangon) was charged into a sterile centrifuge tube, and whole blood mixture of the same volume was added slowly, and then centrifuged at 2000 rpm for 15 min. Leukocyte solution was taken from the interface and appropriate 1640 culture medium was added, centrifuged for 10 min, and washed twice. The supernatant was discarded, and appropriate HAS Buffer was added for resuspending the precipitate so as to prepare leukocyte suspension. The cell density was counted and adjusted to 4×10^7/ml. The product was separated at 37° C. and used within an hour.
Coating the 24-well plate with Hank's solution comprising 50% fetal bovine serum and culturing at 37 for 60 min; washing the plate with 0.15 M NaCl twice; diluting the cells to 6.0×10^6/ml with the buffer solution for release assay, adding cells, and culturing at 37 for 5 min; adding FMLP to the final concentration of 250 nM; adding TNHH samples at different concentrations and culturing at 37 for 60 min; pipetting the cell suspension, centrifuging at 8000×g for 3 min, and collecting the supernatant. Adding the supernatant into multiple-wells of a 96-well ELISA plate, adding 1 N NaOH (25 μl) for stopping the reaction, and determining the OD at 610 nm wavelength. Calculating the IC50 value of TNHH for inhibiting H2O2 release, and using the standard H2O2 solution as a control.

blood coagulation system = assay: effects on blood coagulation system of New Zealand rabbits in vivo (APTT, PT, TT); parameters: species or system New Zealand rabbit; PT: unit not given beside the values; APTT / TT: unit not given here
Procedure: Medicaments were administrated via intravenous injection from marginal ear vein, and 1.8 ml blood was harvested from marginal ear veins at the time of before administration (0 min), and 10 min, 30 min, 60 min, 120 min and 240 min after administration, respectively (the time for injecting is 2 min). 3.2% sodium citrate (9:1) was added for anticoagulation and then mixed and centrifuged at 3000 rpm/min for 3 min. The plasma was send to Department of Clinical Laboratory, Southwest Hospital for determining blood coagulation indexes (APTT, TT and PT) with a full automatic coagulation analyzer and the difference before and after administration was obtained by comparison.

rabbit whole blood = assay: in vitro whole blood anticoagulation assay; parameters: species or system white rabbit; conditions: for Test results (blood coagulation): room temperature 15 min
Procedure: TNHH was diluted to 4 mg/ml, 2 mg/ml, 1 mg/ml, 0.5 mg/ml respectively with phosphate buffer solution (10 mmol/L PB, 0.15 mol/L NaCl, pH7.4). Heparin sodium was prepared to 1 mg/ml with the same buffer solution.
Venous blood was taken from marginal ear vein of the rabbit, and rapidly added into 0#-5# tubes. 0.2 ml of the diluted TNHH samples with different concentrations was added into the 1#-4# tubes, respectively. 0.2 ml phosphate buffer solution was added into the 0# tube, which was used as a negative control. 0.2 ml heparin sodium (1 mg/ml) was added into the 5# tube, which was used as a positive control. The reagents were mixed rapidly and stored at room temperature for 15 min for observing the results.

[2] = TNHH 3.375 mg/kg i.v., 0 min (before administration)
[3] = TNHH 6.675 mg/kg i.v., 0 min (before administration)
[4] = dose in great excess of the effective dose

B1: TNHH: recombinant chimeric protein of neutrophil inhibitory factor and hirugen, Met-NIF-GGGGG-FPRPGSGG-Hirugen (SEQ ID NO: 3), expressed in E. coli (protein)
chain: MNEHNLRCPQNGTEMPGFNDSIRLQFLAMHNGYRSKLALGHISITEESESDDDDDFGFLPDFAPRASKMRYLEYDCEAEKSAYMSARNCSDSSSPPEGYDENKYIFENSNNISEAALKAMISWAKEAFNLNKTKEGEGVLYRSNHDISNFANLAWDAREKFGCAVVNCPLGEIDDETNHDGETYATTIHVVCHYPKINKTEGQPIYKVGTPCDDCSEYTKKADNTTSADPVCIPDDGVCFIGSKADYDSKEFYRFRELGGGGGFPRPGSGGNGDFEEIPEEYL
modifications: N-terminal Met
in vitro interaction with thrombin (reversibility) (thrombin; 37, 2 hr, Hirudin ELISA of supernatant): irreversible | hydrolysis by thrombin (thrombin; structure FPRP-GSGG-hirugen within TNHH): could not be hydrolyzed by thrombin | IC50 value for inhibiting H2O2 release ([1]; FMLP 250 nM, 60 min): 8.5 mg/L | Inhibition ratio (%) ([1]; TNHH 0.781 μg/ml): −1.3% | Inhibition ratio (%) ([1]; TNHH 1.562 μg/ml): 6.55% | Inhibition ratio (%) ([1]; TNHH 3.125 μg/ml): 22.76% | Inhibition ratio (%) ([1]; TNHH 6.25 μg/ml): 40.17% | Inhibition ratio (%) ([1]; TNHH 12.5 μg/ml): 50.82% | Inhibition ratio (%) ([1]; TNHH 25 μg/ml): 61.45% | Inhibition ratio (%) ([1]; TNHH 50 μg/ml): 79.91% | Inhibition ratio (%) ([1]; TNHH 100 μg/ml): 81.99% | inhibition ratio compared with the control group ([1]; concentration not given): about 70% | APTT (blood coagulation system; [2]): 36.45 ± 6.60 | PT (blood coagulation system; [2]): 6.78 ± 0.28 | TT (blood coagulation system; [2]): 15.57 ± 1.09 | APTT (blood coagulation system; TNHH 3.375 mg/kg i.v., 10 min): 37.38 ± 6.35 | PT (blood coagulation system; TNHH 3.375 mg/kg i.v., 10 min): 6.90 ± 0.21 | TT (blood coagulation system; TNHH 3.375 mg/kg i.v., 10 min): 23.23 ± 2.47 | APTT (blood coagulation system; TNHH 3.375 mg/kg i.v., 30 min): 31.97 ± 2.11 | PT (blood coagulation system; TNHH 3.375 mg/kg i.v., 30 min): 6.85 ± 0.23 | TT (blood coagulation system; TNHH 3.375 mg/kg i.v., 30 min): 16.13 ± 1.31 | APTT (blood coagulation system; TNHH 3.375 mg/kg i.v., 60 min): 31.93 ± 2.39 | PT (blood coagulation system; TNHH 3.375 mg/kg i.v., 60 min): 6.78 ± 0.22 | TT (blood coagulation system; TNHH 3.375 mg/kg i.v., 60 min): 14.75 ± 1.44 | APTT (blood coagulation system; TNHH 3.375 mg/kg i.v., 120 min): 30.52 ± 6.86 | PT (blood coagulation system; TNHH 3.375 mg/kg i.v., 120 min): 6.87 ± 0.32 | TT (blood coagulation system; TNHH 3.375 mg/kg i.v., 120 min): 14.02 ± 0.79 | APTT (blood coagulation system; TNHH 3.375 mg/kg i.v., 240 min): 35.65 ± 9.36 | PT (blood coagulation system; TNHH 3.375 mg/kg i.v., 240 min): 7.02 ± 0.24 | TT (blood coagulation system; TNHH 3.375 mg/kg i.v., 240 min): 14.65 ± 1.14 | APTT (blood coagulation system; [3]): 44.25 ± 5.39 | PT (blood coagulation system; [3]): 6.88 ± 0.17 | TT (blood coagulation system; [3]): 15.97 ± 1.42 | APTT (blood coagulation system; TNHH 6.675 mg/kg i.v., 10 min): 39.87 ± 4.98 | PT (blood coagulation system; TNHH 6.675 mg/kg i.v., 10 min): 7.17 ± 0.36 | TT (blood coagulation system; TNHH 6.675 mg/kg i.v., 10 min): 33.57 ± 4.47 | APTT (blood coagulation system; TNHH 6.675 mg/kg i.v., 30 min): 37.98 ± 4.77 | PT (blood coagulation system; TNHH 6.675 mg/kg i.v., 30 min): 7.12 ± 0.47 | TT (blood coagulation system; TNHH 6.675 mg/kg i.v., 30 min): 21.63 ± 1.71 | APTT (blood coagulation system; TNHH 6.675 mg/kg i.v., 60 min): 36.17 ± 6.76 | PT (blood coagulation system; TNHH 6.675 mg/kg i.v., 60 min): 7.17 ± 0.40 | TT (blood coagulation system; TNHH 6.675 mg/kg i.v., 60 min): 15.55 ± 0.95 | APTT (blood coagulation system; TNHH 6.675 mg/kg i.v., 120 min): 38.95 ± 8.85 | PT (blood coagulation system; TNHH 6.675 mg/kg i.v., 120 min): 7.62 ± 0.64 | TT (blood coagulation system; TNHH 6.675 mg/kg i.v., 120 min): 15.00 ± 1.51 | APTT (blood coagulation system; TNHH 6.675 mg/kg i.v., 240 min): 38.03 ± 9.11 | PT (blood coagulation system; TNHH 6.675 mg/kg i.v., 240 min): 7.97 ± 0.99 | TT (blood coagulation system; TNHH 6.675 mg/kg i.v., 240 min): 13.33 ± 0.73 | extension time of PT (blood coagulation system; TNHH 6.675 mg/kg i.v., vs 0 min): less than 3 seconds | effects on the endogenous blood coagulation pathway (blood coagulation system; [4]): no effects | effects on the exogenous blood coagulation pathway and fibrinolytic system (blood coagulation system; [4]): some effects | Test results (blood coagulation) (rabbit whole blood; 0.2 ml TNHH 0.5 mg/ml + 1.0 ml rabbit blood): coagulated | Test results (blood coagulation) (rabbit whole blood; 0.2 ml TNHH 1 mg/ml + 1.0 ml rabbit blood): coag- | Test results (blood coagulation) (rabbit whole blood; 0.2 ml TNHH 2 mg/ml + 1.0 ml rabbit blood): coag- | Test results (blood coagulation) (rabbit whole blood; 0.2 ml TNHH 4 mg/ml + 1.0 ml rabbit blood): coag- | whole blood anticoagulation effects in vitro (rabbit whole blood; TNHH 0.5-4 mg/ml): no whole blood anticoagulation effects | blood coagulation (rabbit whole blood; different concentrations of TNHH (0.5-4 mg/ml)): coagulated
